One molecule from patent US20230365714A1 (published 2023) can be followed below.

In assay [1] the target is T1, ROR211 shuffle variant (Ig-like domain of ROR2, CRD and kringle domain of ROR1) (human (ROR1/ROR2 chimera), UniProt Q01973 18-937).
T1 construct: Transiently expressed on CHO cells
T1 chain: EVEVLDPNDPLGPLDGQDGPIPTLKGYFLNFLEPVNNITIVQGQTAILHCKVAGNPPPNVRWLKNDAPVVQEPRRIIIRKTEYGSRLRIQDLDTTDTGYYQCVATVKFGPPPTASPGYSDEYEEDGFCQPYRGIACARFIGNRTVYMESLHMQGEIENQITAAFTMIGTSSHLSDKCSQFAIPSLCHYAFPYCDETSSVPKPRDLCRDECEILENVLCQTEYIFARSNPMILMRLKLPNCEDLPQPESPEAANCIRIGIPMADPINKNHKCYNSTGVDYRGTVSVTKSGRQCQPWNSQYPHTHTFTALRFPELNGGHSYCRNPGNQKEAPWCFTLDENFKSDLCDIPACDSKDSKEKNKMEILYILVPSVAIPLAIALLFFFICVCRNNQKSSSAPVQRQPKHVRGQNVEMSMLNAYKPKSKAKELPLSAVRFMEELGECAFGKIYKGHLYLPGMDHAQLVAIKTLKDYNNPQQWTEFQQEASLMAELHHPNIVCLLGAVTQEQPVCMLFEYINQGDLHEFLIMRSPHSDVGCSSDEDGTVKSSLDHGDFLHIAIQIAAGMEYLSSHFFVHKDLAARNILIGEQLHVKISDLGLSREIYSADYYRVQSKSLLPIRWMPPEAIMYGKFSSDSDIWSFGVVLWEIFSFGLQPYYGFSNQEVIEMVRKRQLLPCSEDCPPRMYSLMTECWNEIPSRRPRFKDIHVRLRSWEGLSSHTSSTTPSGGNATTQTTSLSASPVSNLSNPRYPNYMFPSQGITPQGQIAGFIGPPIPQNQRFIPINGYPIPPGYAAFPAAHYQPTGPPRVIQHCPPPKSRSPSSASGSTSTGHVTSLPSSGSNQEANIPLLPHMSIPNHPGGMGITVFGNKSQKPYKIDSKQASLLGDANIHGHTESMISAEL
The experiment in a line: cell imaging (CellInsight) on CHO cells expressing the shuffle construct. As for the experimental part: (§1) Binding was determined […] using a cell imaging screening system (Celllnsight, Thermo Fisher) as per manufacturer's recommendations. In short, CHO cells expressing shuffle constructs ROR112, ROR121, ROR122, ROR211 or ROR221 (3,000 cells/well in 384-well plates) were incubated with antibody or control samples for 18 h at 37° C./5% CO₂, washed and incubated with an Alexa488-labeled detection antibody for 4 h. Hoechst dye was added and fluorescence images were collected, measuring total spot intensity (RFU).

Assay [2] deals with T2, ROR221 shuffle variant (Ig-like domain and CRD of ROR2, kringle domain of ROR1) (human (ROR1/ROR2 chimera), UniProt Q01973 30-937).
T2 chain: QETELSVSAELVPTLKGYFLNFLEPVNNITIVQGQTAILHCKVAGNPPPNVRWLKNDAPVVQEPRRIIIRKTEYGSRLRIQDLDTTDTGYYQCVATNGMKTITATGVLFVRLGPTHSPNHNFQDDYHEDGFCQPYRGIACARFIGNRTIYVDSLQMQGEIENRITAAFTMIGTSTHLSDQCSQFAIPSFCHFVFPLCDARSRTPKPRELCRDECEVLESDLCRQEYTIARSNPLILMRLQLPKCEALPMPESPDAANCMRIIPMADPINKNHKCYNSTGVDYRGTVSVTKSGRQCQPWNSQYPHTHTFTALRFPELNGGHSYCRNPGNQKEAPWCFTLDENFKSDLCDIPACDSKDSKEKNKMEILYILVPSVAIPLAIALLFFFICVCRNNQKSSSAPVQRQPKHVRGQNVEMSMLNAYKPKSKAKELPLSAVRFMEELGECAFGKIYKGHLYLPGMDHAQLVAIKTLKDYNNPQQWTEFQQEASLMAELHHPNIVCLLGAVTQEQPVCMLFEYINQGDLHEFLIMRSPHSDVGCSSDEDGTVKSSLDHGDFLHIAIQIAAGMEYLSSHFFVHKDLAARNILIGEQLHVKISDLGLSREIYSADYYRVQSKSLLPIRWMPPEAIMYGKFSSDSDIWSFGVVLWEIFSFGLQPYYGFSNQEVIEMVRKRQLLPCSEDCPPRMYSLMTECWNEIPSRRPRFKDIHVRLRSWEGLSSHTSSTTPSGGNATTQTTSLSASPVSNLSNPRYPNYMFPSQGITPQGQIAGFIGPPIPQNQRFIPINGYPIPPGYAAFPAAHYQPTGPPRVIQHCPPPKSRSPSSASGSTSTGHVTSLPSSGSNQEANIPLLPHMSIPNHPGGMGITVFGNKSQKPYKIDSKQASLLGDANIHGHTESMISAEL
The description is as above. The protocol:
as §1

B1: chIgG1-ROR2-A (antibody, V domains shown)
VH: QSVEESGGRLVTPGTPLTLTCTVSGFSLSSYSMSWVRQAPGKGLEWIGVIYVNSKTWYANWAKGRFTISKTSTTVDLKITSPTTEDTATYFCARGDAGYTTNSWLWGPGTLVTVSS
VL: AFELTQTPASVSEPVGGTVTIKCQASESIDNYCSWYQQKPGQPPKLLIYQAFKLASGVPSRFRGSGSGTQFTLTISDLESDDAATYYCQSYSGISTTAFGGGTEVVVK
notes: Rabbit-human chimeric antibody; also called ROR2 specific antibody A
B1: the “RFU (total spot intensity)” value in assay [1] and in assay [2] was 0 RFU each time. The binding result in assay [1] and in assay [2] was “no binding (tested: RFU = 0)” in each case.
